Experimental findings from patent publication US20250002543A1 are described below.

In assay [1] the target is immunoglobulin immobilized on IgG Sepharose 6 Fast Flow (manufactured by Cytiva). The assay is described as follows: IgG Sepharose 6 Fast Flow column; linear gradient 0.1 M citrate pH 6.5 to pH 2.2; pH at the peak of the eluted binding protein.
The target of assay [2] is Herceptin containing human κ light chain subgroup 1 (Vκ1) (manufactured by Chugai Pharmaceutical Co., Ltd.). Description: ELISA; Herceptin immobilised, binding protein at 2 ug/mL, dissociation with 0.05 M citric acid pH 2.7 for 2 min, absorbance ratio to wells without dissociation.

In assay [1], “FpL_C3 (wild-type), immunoglobulin-binding domain C3 of protein L (FpL) of Finegoldia magna” showed an Elution pH of 2.9 pH. The Elution rate [%] in assay [2] turned out to be 76%.
